Measured values published in publication PMC6501848.

Columns and labels:
[1] = biological target: human CAP1 with C-terminal GFP and Strep-tag II (human) (UniProt Q01518); experiment: co-purification
[2] = biological target: human CAP2 with C-terminal GFP and Strep-tag II (human) (UniProt P40123); experiment: co-purification
[3] = biological target: co-expressed CAP1-GFP/CAP2-GFP (human) (UniProt Q01518); experiment: co-purification
[4] = biological target: human INF2-nonCAAX full-length, untagged (human); experiment: AUC
[5] = biological target: CAP in the brain inhibitory fraction (CAP1 and CAP2 of mouse brain) (mouse (endogenous in brain))
[6] = biological target: GFP-Strep-tagged human INF2-nonCAAX full-length, purified (human)
[7] = biological target: INF2-Cterm labeled with tetramethylrhodamine (human) (UniProt Q27J81); experiment: fluorescence polarisation

untagged CAP co-purifying with CAP-GFP (likely endogenous HEK293 CAP), sequence (Q01518 whole entry): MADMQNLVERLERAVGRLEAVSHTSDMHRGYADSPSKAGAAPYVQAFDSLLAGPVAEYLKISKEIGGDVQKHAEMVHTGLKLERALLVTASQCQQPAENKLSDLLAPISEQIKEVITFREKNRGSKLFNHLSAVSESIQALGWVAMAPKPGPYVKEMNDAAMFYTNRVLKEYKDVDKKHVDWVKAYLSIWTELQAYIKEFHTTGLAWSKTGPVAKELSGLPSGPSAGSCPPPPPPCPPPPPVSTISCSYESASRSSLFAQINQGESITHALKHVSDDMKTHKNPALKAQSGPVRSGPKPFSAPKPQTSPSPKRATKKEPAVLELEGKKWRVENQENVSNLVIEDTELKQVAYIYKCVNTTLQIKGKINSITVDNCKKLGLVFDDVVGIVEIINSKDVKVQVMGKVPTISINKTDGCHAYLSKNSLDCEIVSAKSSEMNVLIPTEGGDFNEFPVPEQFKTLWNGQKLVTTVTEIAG
human CAP1 with C-terminal GFP and Strep-tag II (human), sequence (Q01518 whole entry): as above
co-expressed CAP1-GFP/CAP2-GFP (human), sequence (Q01518 whole entry, chain 1 of 2): as the sequence (Q01518 whole entry) above
co-expressed CAP1-GFP/CAP2-GFP (human), sequence (P40123 whole entry, chain 2 of 2, further chain): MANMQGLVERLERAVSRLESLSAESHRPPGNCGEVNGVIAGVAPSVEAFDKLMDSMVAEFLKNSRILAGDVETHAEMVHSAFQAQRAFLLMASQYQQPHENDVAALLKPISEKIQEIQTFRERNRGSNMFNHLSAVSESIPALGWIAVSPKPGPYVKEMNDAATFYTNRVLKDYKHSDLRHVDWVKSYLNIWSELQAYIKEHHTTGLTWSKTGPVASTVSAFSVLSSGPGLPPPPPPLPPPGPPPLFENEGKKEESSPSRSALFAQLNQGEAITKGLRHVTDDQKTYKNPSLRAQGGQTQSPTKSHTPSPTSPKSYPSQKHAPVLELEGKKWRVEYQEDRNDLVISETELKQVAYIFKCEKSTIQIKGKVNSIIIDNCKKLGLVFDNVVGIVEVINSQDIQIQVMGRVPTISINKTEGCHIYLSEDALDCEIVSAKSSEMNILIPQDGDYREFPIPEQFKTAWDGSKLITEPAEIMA
human CAP2 with C-terminal GFP and Strep-tag II (human), sequence (P40123 whole entry): as the sequence (P40123 whole entry, chain 2 of 2, further chain) above

Row | Substance | mole percentage compared to CAP-GFP [1] [%] | mole percentage compared to CAP-GFP [2] [%] | mole percentage compared to CAP-GFP [3] [%] | other results
1 | actin of HEK293 cells co-purifying with recombinant CAP (from UniProt P60709 1-375) (natural protein) | 82.5 | 88.1 | 90.5 | 
2 | human INF2-nonCAAX full-length, untagged (natural protein) |  |  |  | stoichiometry N [4]: 2
3 | mouse brain actin (from UniProt P60710 1-375) (natural protein) |  |  |  | mole percentage compared to CAP [5]: 107%
4 | untagged CAP2/actin complex purified from tubastatin A-treated 293 cells (from UniProt P40123;P60709) |  |  |  | IC50 of inhibition of INF2-mediated actin polymerization, pyrene-actin assay [6]: 263 nM; Kd [7]: 1820 nM
5 | untagged CAP co-purifying with CAP-GFP (likely endogenous HEK293 CAP) (from UniProt Q01518 1-475) (natural protein) | 16.8 | 16.3 | 16.5 | 
